Data from PMC6456722, “Internal cleavage and synergy with twisted gastrulation enhance BMP inhibition by BMPER” (Matrix Biology, 2019).

B1: full-length BMP-binding endothelial cell precursor-derived regulator (FL-BMPER) (natural protein)
chain: not shown
modifications: N-glycosylated (five predicted N-glycosylation sites)
notes: BMPER, human, full length, based on NCBI NM_133468.4; five vWFC domains, one vWFD domain, one TIL domain; His tag is thrombin cleavable; The protein is internally cleaved at the G368DPH371 site; the two fragments stay joined by the disulphide C364-C497; also called full length BMPER; Crossveinless-2 (CV2) in other species
B2: twisted gastrulation (Tsg) (natural protein, human, UniProt Q9GZX9 26-223, looked up)
chain: CNKALCASDVSKCLIQELCQCRPGEGNCSCCKECMLCLGALWDECCDCVGMCNPRNYSDTPPTSKSTVEELHEPIPSLFRALTEGDTQLNWNIVSFPVAEELSHHENLVSFLETVNQPHHQNVSVPSNNVHAPYSSDKEHMCTVVYFDDCMSIHQCKISCESMGASKYRWFHNACCECIGPECIDYGSKTVKCMNCMF
notes: twisted gastrulation (Tsg)
B3: chordin vWFC2-3 (domain or fragment, UniProt Q9H2X0 703-850, looked up)
chain: NTCFFEGQQRPHGARWAPNYDPLCSLCTCQRRTVICDPVVCPPPSCPHPVQAPDQCCPVCPEKQDVRDLPGLPRSRDPGEGCYFDGDRSWRAAGTRWHPVVPPFGLIKCAVCTCKGGTGEVHCEKVQCPRLACAQPVRVNPTDCCKQC
notes: chordin, domains vWFC2-3

Key:
[1] = target: the molecule itself; assay: AUC; sedimentation velocity, 230 nm, 45000 rpm, 20 °C
[2] = target: B1; assay: SPR; ProteOn XPR36; Tsg immobilised on a GLC chip by amine coupling; FL-BMPER (0-150 nM) or N-BMPER (0-50 nM) as analytes; 10 mM phosphate pH 7.4, 137 mM NaCl, 2.7 mM KCl, 0.005% Tween-20, 25 °C; KD of FL-BMPER by equilibrium analysis, of N-BMPER by Langmuir 1:1 model; conditions: both partners purified
[3] = target: T1, N-BMPER (N-terminal five vWFC domains of human BMPER) (human, UniProt Q8N8U9 40-358, N-glycosylated (four predicted sites in the vWFC domains)); assay: as above; conditions: both partners purified
T1 construct: BMPER, human, the N-terminal five vWFC domains (vWFC1-5), based on NCBI NM_133468.4; His tag is thrombin cleavable; also called C-terminally truncated N-BMPER

[4] = target: T1, N-BMPER (N-terminal five vWFC domains …); assay: SPR; chordin vWFC2-3 immobilised, N-BMPER in solution phase; Langmuir 1:1 model; conditions: both partners purified

T1 sequence (Q8N8U9 40-358): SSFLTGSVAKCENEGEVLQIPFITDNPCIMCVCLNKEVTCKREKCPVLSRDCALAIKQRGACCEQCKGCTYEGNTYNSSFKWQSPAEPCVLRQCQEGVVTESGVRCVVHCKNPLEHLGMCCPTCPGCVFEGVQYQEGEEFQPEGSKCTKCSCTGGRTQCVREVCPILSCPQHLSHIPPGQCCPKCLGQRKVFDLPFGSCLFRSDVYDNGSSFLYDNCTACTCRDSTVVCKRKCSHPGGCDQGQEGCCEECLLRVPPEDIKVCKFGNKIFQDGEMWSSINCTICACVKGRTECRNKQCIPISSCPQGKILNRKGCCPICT

Binder: B1
binding result [1]: binds

Binder: B2
Kd [2]: 68.4 nM
koff [2]: 0.000203 s⁻¹
kon [2]: 2970 M⁻¹ s⁻¹
Kd [3]: 0.55 nM
koff [3]: 0.000228 s⁻¹
kon [3]: 415000 M⁻¹ s⁻¹

Binder: B3
Kd [4]: 0.2 nM
koff [4]: 8.22e-05 s⁻¹
kon [4]: 404000 M⁻¹ s⁻¹
